The series deals with the molecule itself. The experiment in a line: cryo-EM structure; single-particle cryoEM of the TOM core complex assembled in the fly retina, FLAG-purified as a whole and reconstituted into non-ionic amphipol; graphene-coated grids; C2 symmetry; 3.3 Å.

A word on the stoichiometry N: it is the number of molecules, sites or subunits per partner or assembly.

B1: Drosophila Tom40 subunit fused to a C-terminal FLAG-HA epitope tag (natural protein, D. melanogaster)
chain: AALENPGTVEELHKKCKDIQAITFEGAKIMLNKGLSNHFQVSHTINMSNVVPSGYRFGATYVGTKEFSPTEAFPVLLGDIDPAGNLNANVIHQFSARLRCKFASQIQESKVVASQLTTDYRGSDYTLSLTVANPSIFTNSGVVVGQYLQSVTPALALGSELAYQFGPNVPGRQIAIMSVVGRYTAGSSVWSGTLGQSGLHVCYYQKASDQLQIGAEVETSLRMQESVATLAYQIDLPKANLVFRGGIDSNWQIFGVLEKRLAPLPFTLALSGRMNHVKNNFRLGCGLMIG
notes: Tom40, translocation pore of the TOM complex, Drosophila melanogaster; transgene UAS-Tom40-FLAG.HA (Bloomington stock); residues 55-344 are modelled in the structure; two copies stand in the two-pore core complex; also called Tom40-FLAG-HA; Tom40_FLAG-HA; source: transgenic D. melanogaster retina (GMR-GAL4, UAS-Tom40-FLAG-HA, co-expressed with Myc); solubilised fly head membranes, purified on …
Regarding B1, the “stoichiometry N” value was found to be 2.

The values are drawn from article PMC11707698, “Structure of an ex vivoDrosophila TOM complex determined by single-particle cryoEM” (IUCrJ, 2025).
